Measurements: patent US20230331811A1, “IMMOBILIZED SELF-ASSEMBLED PROTEIN MULTIMERS” (CCOA THERAPEUTICS INC., priority 2020, published 2023)

Target: T1, fibrinogen (Homo sapiens, UniProt P02671+P02675+P02679)
T1 sequence (P02671 20-629 limits assumed): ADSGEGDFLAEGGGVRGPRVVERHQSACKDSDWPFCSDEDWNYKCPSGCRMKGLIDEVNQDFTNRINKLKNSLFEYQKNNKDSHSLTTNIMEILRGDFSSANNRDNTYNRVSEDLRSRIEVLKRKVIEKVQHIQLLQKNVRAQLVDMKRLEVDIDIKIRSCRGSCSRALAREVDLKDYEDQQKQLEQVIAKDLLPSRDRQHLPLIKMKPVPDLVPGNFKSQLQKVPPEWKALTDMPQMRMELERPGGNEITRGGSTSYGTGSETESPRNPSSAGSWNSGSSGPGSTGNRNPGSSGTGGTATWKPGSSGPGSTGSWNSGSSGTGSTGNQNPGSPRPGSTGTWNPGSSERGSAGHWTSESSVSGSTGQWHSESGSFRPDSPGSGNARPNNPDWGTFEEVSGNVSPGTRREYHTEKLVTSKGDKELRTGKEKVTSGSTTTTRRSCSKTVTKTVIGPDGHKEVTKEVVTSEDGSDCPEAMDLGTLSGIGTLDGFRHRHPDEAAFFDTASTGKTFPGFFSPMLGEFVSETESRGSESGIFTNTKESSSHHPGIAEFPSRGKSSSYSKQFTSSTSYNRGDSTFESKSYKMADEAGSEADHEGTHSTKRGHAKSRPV
T1 sequence (P02675 31-491): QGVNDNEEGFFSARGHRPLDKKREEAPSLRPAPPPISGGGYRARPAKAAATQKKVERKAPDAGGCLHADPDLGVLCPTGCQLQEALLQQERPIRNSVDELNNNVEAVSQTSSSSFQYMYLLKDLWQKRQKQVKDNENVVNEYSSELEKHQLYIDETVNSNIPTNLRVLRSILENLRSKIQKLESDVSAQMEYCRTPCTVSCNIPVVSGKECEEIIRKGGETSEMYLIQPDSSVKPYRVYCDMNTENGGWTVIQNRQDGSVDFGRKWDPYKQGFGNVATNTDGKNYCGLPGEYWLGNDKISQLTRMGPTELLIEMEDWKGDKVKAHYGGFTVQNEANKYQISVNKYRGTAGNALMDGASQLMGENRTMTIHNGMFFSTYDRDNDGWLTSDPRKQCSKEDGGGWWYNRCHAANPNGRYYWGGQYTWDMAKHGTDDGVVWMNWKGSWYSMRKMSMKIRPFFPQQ
T1 sequence (P02679 27-453): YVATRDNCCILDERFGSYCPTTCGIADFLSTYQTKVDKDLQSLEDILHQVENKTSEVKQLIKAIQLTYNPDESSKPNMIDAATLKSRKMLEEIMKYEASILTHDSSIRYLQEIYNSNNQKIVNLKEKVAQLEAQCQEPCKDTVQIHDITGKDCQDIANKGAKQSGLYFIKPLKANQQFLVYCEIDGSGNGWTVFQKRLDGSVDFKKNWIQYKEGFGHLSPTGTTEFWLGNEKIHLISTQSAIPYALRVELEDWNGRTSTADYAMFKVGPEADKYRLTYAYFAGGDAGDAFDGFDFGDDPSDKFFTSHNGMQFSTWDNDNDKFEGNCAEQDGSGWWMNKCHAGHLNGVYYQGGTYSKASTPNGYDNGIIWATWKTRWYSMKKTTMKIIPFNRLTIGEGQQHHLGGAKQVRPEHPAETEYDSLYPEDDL
Assay: Fibrinogen ELISA assay
Assay type: binding
Settings: sandwich ELISA
Protocol: Fibrinogen ELISA Assay. To ensure similar immobilization levels of recombinant human ectodomain aIIbβ3 between the ELISA plate and integrin coupled magnetic beads, the wells of a 96-well micro plate (Nunc MaxiSorp) were incubated with the same aIIbβ3 concentration per surface area as during the preparation of the magnetic beads, 6.6×10^4 μg·mL^−1·c^−2. Each well was coated with aIIbβ3 or control proteins (BSA and β3−/− platelet lysate) by incubation of 6 μg/μL protein in binding buffer (TRIS buffered saline with 0.05% TWEEN-20 and 1 mM each of MgCl2, MnCl2 and CaCl2)) at 4° C. overnight. Incubation of 3% skim milk (ED Millipore) and 2% TWEEN-20 for 1 hour at 37° C. was used for blocking. The concentration of aIIbβ3 per surface area of bead used when coating SAM coated beads is 6.6×10^4 μg·mL^−1·cm^−2, therefore the wells of 96 well plates used were coated with the same density EDC/NHS quenching achieved by increase pH to 8.6. Bead concentration for synthesis: 6×10^9 beads·mL^−1; Integrin-bead reaction concentration=250 μg·mL^−1; Integrin Used=6.6×10^4 μg·mL^−1·cm^−2; Well Surface Area (50 μL)=0.93 cm^2; Concentration/wee for ELISA=6×10^4 μg·mL^−1 (6 μL/well in 50 μL total volume); Stock [αIIbβ3]=5×10^5 μg·mL^−1.
Fibrinogen binding. […] The OPD peroxidase reaction was stopped after 1 hour with 2 M H2SO4 and the absorbance was read at 492 nm. […]

integrin: Recombinant human ectodomain αIIbβ3 immobilized on 96-well ELISA plate at the same density as on the beads
CLOD (fibrinogen detection): 0.54 ± 0.07 µM | Kd (integrin on plate surface, blocking step, HRP labelled detection antibody): 2200 ± 400 nM
